# Values joined by “and” are separate entries in the source; they are usually repeats but may differ in a detail not shown here. Identical values can stand only once.
# System: NHEK
# Assay: Migration/proliferation of NHEK, wound recovery by kinetic image analysis
# Assay type: cell-based, human
# Details: 10 ng/ml, single image
# Method: Botanical extracts were evaluated for anti-aging, cell renewal and anti-inflammatory properties via systemic application (diluted in the culture medium) using the concentrations that were determined not toxic for skin cells (0.1 mg/ml) followed by two successive 3-fold dilutions. The matrix metalloproteinase-1 (MMP-1) assay using a specific ELISA kit was used to evaluate anti-aging properties. The migration/proliferation of NHEK using kinetic image analysis of the wound recovery was used to evaluate cell renewal properties. The IL-8 release on NHEK stimulated by PMA using a specific ELISA kit was used to evaluate anti-inflammatory properties.
molecule,measurement,setting,value
"EGF: control (EGF) at 10 ng/ml in the wound recovery assay (protein, UniProt P01133 23-1207, looked up, Pro-epidermal growth factor, control (EGF) at 10 ng/ml in the wound recovery assay) Pro-epidermal growth factor: PQHWSCPEGTLAGNGNSTCVGPAPFLIFSHGNSIFRIDTEGTNYEQLVVDAGVSVIMDFHYNEKRIYWVDLERQLLQRVFLNGSRQERVCNIEKNVSGMAINWINEEVIWSNQQEGIITVTDMKGNNSHILLSALKYPANVAVDPVERFIFWSSEVAGSLYRADLDGVGVKALLETSEKITAVSLDVLDKRLFWIQYNREGSNSLICSCDYDGGSVHISKHPTQHNLFAMSLFGDRIFYSTWKMKTIWIANKHTGKDMVRINLHSSFVPLGELKVVHPLAQPKAEDDTWEPEQKLCKLRKGNCSSTVCGQDLQSHLCMCAEGYALSRDRKYCEDVNECAFWNHGCTLGCKNTPGSYYCTCPVGFVLLPDGKRCHQLVSCPRNVSECSHDCVLTSEGPLCFCPEGSVLERDGKTCSGCSSPDNGGCSQLCVPLSPVSWECDCFPGYDLQLDEKSCAASGPQPFLLFANSQDIRHMHFDGTDYGTLLSQQMGMVYALDHDPVENKIYFAHTALKWIERANMDGSQRERLIEEGVDVPEGLAVDWIGRRFYWTDRGKSLIGRSDLNGKRSKIITKENISQPRGIAVHPMAKRLFWTDTGINPRIESSSLQGLGRLVIASSDLIWPSGITIDFLTDKLYWCDAKQSVIEMANLDGSKRRRLTQNDVGHPFAVAVFEDYVWFSDWAMPSVMRVNKRTGKDRVRLQGSMLKPSSLVVVHPLAKPGADPCLYQNGGCEHICKKRLGTAWCSCREGFMKASDGKTCLALDGHQLLAGGEVDLKNQVTPLDILSKTRVSEDNITESQHMLVAEIMVSDQDDCAPVGCSMYARCISEGEDATCQCLKGFAGDGKLCSDIDECEMGVPVCPPASSKCINTEGGYVCRCSEGYQGDGIHCLDIDECQLGEHSCGENASCTNTEGGYTCMCAGRLSEPGLICPDSTPPPHLREDDHHYSVRNSDSECPLSHDGYCLHDGVCMYIEALDKYACNCVVGYIGERCQYRDLKWWELRHAGHGQQQKVIVVAVCVVVLVMLLLLSLWGAHYYRTQKLLSKNPKNPYEESSRDVRSRRPADTEDGMSSCPQPWFVVIKEHQDLKNGGQPVAGEDGQAADGSMQPTSWRQEPQLCGMGTEQGCWIPVSSDKGSCPQVMERSFHMPSYGTQTLEGGVEKPHSLLSANPLWQQRALDPPHQMELTQ",Wound area,16 hours,0.86 mm^2 and 0.69 mm^2 and 0.89 mm^2
same,Wound area,24 hours,0.64 mm^2 and 0.44 mm^2 and 0.63 mm^2
